Results as given in patent US20050191621A1.

Experiments:
[1] = molecular target: 8x-V3BaL Env (8x Env with the V3 loop of HIV-1/BaL; on cells or on luciferase reporter virions) (HIV-1 (IIIBx 8x/BaL chimera)); assay: cell-based or functional assay
[2] = molecular target: IIIB-V3BaL Env (HXB Env with the V3 loop of HIV-1/BaL; on luciferase reporter virions) (HIV-1 (IIIB/BaL chimera)); assay: cell-based or functional assay

Substance	concentration of antibody required to neutralize 50% of input virus (luciferase reporter virus, GHOST-CCR5 cells) [1]	concentration of antibody required to neutralize 90% of input virus (luciferase reporter virus, GHOST-CCR5 cells) [1]	concentration of antibody required to neutralize 50% of input virus (luciferase reporter virus, GHOST-CCR5 cells) [2]	concentration of antibody required to neutralize 90% of input virus (luciferase reporter virus, GHOST-CCR5 cells) [2]	percent neutralization at 200 ng/ml (luciferase reporter virus, GHOST-CCR5 cells) [1]
CD4-induced (CD4i) monoclonal antibody 17b	2 ng/mL	15 ng/mL	14 ng/mL	90 ng/mL	
CD4-induced (CD4i) monoclonal antibody 48d	3 ng/mL	> 200 ng/mL	> 5000 ng/mL	> 5000 ng/mL	88%
